# Experimental data reported in the RNAGym collection of RNA variant scans (doi:10.1073/pnas.2313332121).
# Variants at the floor of the assay were thinned out.
# B1: TPR 5TU (parent)
# chain: GGAUCUUCUCGAUCUAACAAAAAAGACAAAUCUGCCACAAAGCUUGAGAGCAUCUUCGGAUGCAGAGGCGGCAGCCUUCGGUGGCGCGAUAGCGCCAACGUUCUCAACUAUGACACGCAAAACGCGUGCUCCGUUGAAUGGAGUUUAUCAUG
# Variants of: B1
# Assay: polymerase ribozyme fitness, log enrichment relative to wild type (log ratio); higher = more active; in vitro selection for triplet polymerase activity
# In short: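 Frozen incubation at −7 °C formed the core of a single, triplicate in vitro selection round applied to PCR-built, transcribed mutant libraries of each subunit of a heterodimeric triplet polymerase ribozyme. Extended constructs were gel-excised, captured with streptavidin beads and amplified by RT-PCR, and input and output libraries were Illumina-sequenced with a filter of ≥10 input reads and ≥1 read per output. Fitness is the logarithm of genotype enrichment relative to wild-type enrichment, with inverse-variance-weighted replicate averaging, and the logarithm is base 2.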
row,Variant,polymerase ribozyme fitness (log ratio)
1,GGAUUUUCUCGAUCUAACGAAAAAGACAAAUCUGCCACAAAGCUUGAGAGCAUCUUCGGAUGCAGAGGCGGCAGCCAUCGGUGGCGCGAUAGCGUCAACGUUCUCAACUAUGACACGCAAAACGCGUGCUCCGUUGAAUGGAGUUUAUCAUG,≤ -4.2
2,GGAUUUUCUCGAUCUACCAAAAAAGACAAAUCUGCCACAAAGCUUGAGAACAUCUUCGGAUGCAGAGGCGGCAGCCAUCGGUGGCGGGAUCGCGCCAACGUUCUCUACGAUGACACGCAAAACGCGUGCUCCGUUGAAUGGAGUUUAUCAUG,≤ -4.2
3,GGAUUUUCUCGAUCUUACAAAAAAGUCAAAUCUGCCACAAAGCAUGAGAGCGUCUUCGGAUGCAGAGGCGGCAGCCUUCGGUGGCGCGAUACCGCCAACGUUCUCAACUAUGACACGCAAAACGCGUGCUCCGUUGAAUGGAGUUUAUCAUG,≤ -4.2
4,GGAUUUUCUCGAUCUAACAAACAAGACAAAUCUGCCACAAAGCUUGAGAGCAUCUUCGGAUGCAGAGGCGGCAGCCUUCGGUGGAGCGAUAGCGCCAACGUUCUCAACUAUGACACGCAAAACGCGUGCUCCGUUGAAUGGAGUUUAUCAUG,-9.25e-05
5,GGAUUUUCUCGAUCUAACAAAUAAGAGAAAUCUGCGACAAAGCUUGAGAGCAUCUUCGGAUGCAGAGGCGGCAGCCUUCGGUUGCGCGAUAGCGCCAACGUUGUCAACUAUGACAUGCAAAACGCGUGCUCCGUUUAAUGGAGUUUAUCAUG,≤ -4.2
6,GGAUUUUCUCGUUCUAAGAAAAAAGACAAAUCUGCCACAAAGCUUGAGAGCAUCUUCGGAUGCAGAGGCCGCAGCCUUCAGUGGCGCGAUAGGGUCAGCGUUCUCAACUAUGACACGCAAAACGCGUGCUCCGUUGAAUGGAGGUUAUCAUG,≤ -4.2
7,GGAUUUUCUCGAUCUAACGAAAGAGACAAAUCUGCCACAAAGCUUGAGAGCAUCUUCUGAUGCAGAGGCGGCAGCCUUCGAUGGCGCGAUAGCCCCAACGUUCUCAACUAUGACAAGCAAAACGCGUGUUCCGUCGAAUGGAGUUGAUCAUG,≤ -4.2
8,GGAUUUUCUCGAUCUCACAAAAAAGACAAAUCUGCCACAAAGCUUGAGAGUAUCUUCGGAUGCAGAGGCGGCAGCCUUCGGUGGCGCGAUAGCGCCAACGUUCUCAACUAUGACACGCAAAACGCGUGCUCCGUUGAAUGGAGUUUAUCAUG,-1.73
9,GGAUUUUCUCGAUCUAACAAAAAAGACAAAUCUGCCACAAAGCUUGAGAGCAUCUUCGGAUGCAGAGGCGGCAGCCUUCGGUGGCGCGAUAGCGCCAACGUUCUCAACUAUGACACGCAAAACGCGUGCUCCGUUGAAUGGAGUUUAUCAUG,0.998
10,GGAUUUUCUCGUUCUAACAAAAAAGACAACUCUGCCACAAAGCUUGAGAGCAUCUUCGCAUGCAGAGGCGGCAGCCUUCGGUGGCGCGAUAGCGCCAACGUUCUCAACUAUGACACGCAAAACGGUUGCUCCGUUGAAUGGAGUUUAUCAUG,≤ -4.2
11,GGAUUUUCUCGAUCUAACAAUAAAGACAAAUCUGCCACAAAGCUUGAGAGCAUCUUCGGAUGCAGAGGCGGCAGCCUUCGGUGGCGCGAUAGCGCCAACGUUCUCAACUAUGACACGCAAAACGCGUGCUCCGUUGAAUGGAGUUUAUCAUG,1.4
12,GGAUUUUCUCGUUCUAACAAAAAAGACAAAUCUGCCACAAAGCUUGAGAGCAUCUUCGGAUGCAGAGGCGGCAGCCUUCGGUGUCGCGAUAGCGCCAACGUUCUCAACUAUGACACGCAAAACGCGUGCUCCGUUGAAUGGAGUUUAUCAUG,-1.92
13,GGAUUUUCUCGAUCUAACAAGAAAGACAAAUCUGCCACAAAGCUUGAGAGCAUCUUCGCAUGCAGAGGCGGCAGCCUUCGGUGGCGCGAUAGGGCCAACGUUCUCAACUAUGACACGCAAAACGCGUGCUCCGUUGAAUGGAGUUUAUCAUG,-1.3
14,GGAUUUUCUCGAUCUAACCAAAAAGACAAAUCUGCCACGAAGCUUGAGAGCAUCUUCGGAUGCAGAGGCGGCAGCCUUCCGUGGCGUGAUAGCGCCAACGUUCUGAACUAUGACACGCAAAACGCGUGCUCCGUAGAAUGGAGUUUAUCAUG,≤ -4.2
15,GGAUGUUCUCGAUCUAACAAAAAAGACAAAUCUGCCACAAAGCUUGAGAGCAUCUUCGGAUGCAGAGGCGGCAGCCUUCGGUGGCGCGAUAGCGCCAACGGUCUCAACUAUGACACGCAAAACGCGUGCUCCGUUGAAUGGAGUUUAUCAUG,0.0588
16,GGAUUUUCUCGAUCUAACACAAAAGACAAAUCUGCCACAAAGGUUGAGAGCAUCUUCGGAUGCAGAGGCGGCAGCGUUCGGUGGCGCGAUAGCGCCAACGUUCUCAAGUAUGAUACGCAUAACGCGUGCUCCGUUGAAUGGAGUUGAUCAUG,≤ -4.2
17,GGAUUUUCUCGAUCUAACGAAAAAGACAAAUCUGCCACAAAGCUUGAGAGCAUCUUUGGAUGCAGAGGCGGCAGCCUUCGGUGUCGCGAUAGCGCCAACGUUCUCAACUAUGACACUCAUAACGCGUGCUCCGUUGAAUGGAGUUUAUCAUG,-2.48
18,GGAUGUUCUCGAUCUAACAAAAAAGACAAAUCUGCCACAAAGCUUGAGAGCAUCUUCGGAUGCAGAGGCGGCAGCCUUCGGUGGCGCGAUAGCGCCAACGUUCUCAACUAUGACACGCAAAACGCGUGCUCCGUUGAAUGGAGGUUAUCAUG,0.355
19,GGAUUUUCUCGAUCUAACACAAAAGACAGAUCUGCCACAAAGCUUGAGAGCAUCUUCGGAUGCAGAGGCGGCAGCCUUCGGUGGCGCGAUAGCGCCAACGUUCUCAACUAUGACCCGCAAAACGCGUGCGCUGUUGAAUGGAGUUCAUCAUG,≤ -4.2
